Laboratory results reported in publication PMC5934441 (2018).

Key:
[1] = target: T1, recombinant ECTV CrmD (cytokine response modifier D), C-terminally tagged with V5 and 6xHis (ectromelia virus (ECTV)); experiment: SPR
[2] = target: T1, recombinant ECTV CrmD (cytokine …); experiment: SPR; remark: listed apart in the source

B1: mouse Ccl27 (ligand)
chain: LPLPSSTSCCTQLYRQPLPSRLLRRIVHMELQEADGDCHLQAVVLHLARRSVCVHPQNRSLARWLERQGKRLQGTVPSLNLVLQKKMYSHPQQQN
B1 gave a Kd [1] of 5.41 nM and a koff [2] of 0.00372 s⁻¹.
